Experimental data published in article PMC4914108 (Nucleic Acids Research, 2016).
Residue numbers refer to the chain shown, from its start. Like-named read-outs stand apart in the source and are kept apart here.

T1: RacA from FL crystals (proteolyzed) (Bacillus subtilis, UniProt P45870 1-64)
T1 sequence: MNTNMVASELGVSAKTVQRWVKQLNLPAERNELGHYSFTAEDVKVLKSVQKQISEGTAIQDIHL

T2: RacA DBD (Bacillus subtilis, UniProt P45870 1-70)
T2 sequence: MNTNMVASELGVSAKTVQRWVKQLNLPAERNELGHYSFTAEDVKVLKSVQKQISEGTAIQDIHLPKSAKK

T3: RacA FL (Bacillus subtilis, UniProt P45870 1-184)
T3 sequence: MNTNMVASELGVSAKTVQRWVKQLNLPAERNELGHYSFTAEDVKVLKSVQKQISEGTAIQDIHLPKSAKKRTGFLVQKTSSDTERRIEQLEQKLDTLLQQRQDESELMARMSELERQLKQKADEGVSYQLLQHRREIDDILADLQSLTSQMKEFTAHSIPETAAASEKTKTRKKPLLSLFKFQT

T4: RacA DBD K15A (Bacillus subtilis, UniProt P45870 1-70, K15A)
T4 sequence: T2 sequence with K15A

T5: RacA DBD R30A (Bacillus subtilis, UniProt P45870 1-70, R30A)
T5 sequence: T2 sequence with R30A

T6: RacA C-domain (Bacillus subtilis, UniProt P45870 71-184)
T6 sequence: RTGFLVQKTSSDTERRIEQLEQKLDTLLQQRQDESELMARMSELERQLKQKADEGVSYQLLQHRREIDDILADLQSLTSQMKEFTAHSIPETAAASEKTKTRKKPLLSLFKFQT

B1: 14mer ram site, 5-bromouracil (dsDNA)
DNA 1: TGACGCCGGCGTCA
DNA 2: TGACGCCGGCGTCA
modifications: thymines replaced with 5-bromouracil
B2: 14mer ram centromere site (FP) (dsDNA)
DNA 1: TGACGCCGGCGTCA
DNA 2: TGACGCCGGCGTCA
B3: RacA C-terminal region, RacA(71-184) (domain or fragment, B. subtilis, UniProt P45870 71-184, looked up)
chain: T6 sequence
B4: DivIVA C-terminal domain, DivIVA(66-164) (domain or fragment, B. subtilis, UniProt P71021 66-164, looked up)
chain: TLNKSILVAQEAAEDVKRNSQKEAKLIVREAEKNADRIINESLSKSRKIAMEIEELKKQSKVFRTRFQMLIEAQLDLLKNDDWDHLLEYEVDAVFEEKE

Tests used:
[1] = target: T1, RacA from FL crystals (proteolyzed); assay: X-ray crystallography
RacA DBD = target: T2, RacA DBD; assay: fluorescence polarization
RacA FL = target: T3, RacA FL; assay: fluorescence polarization
RacA DBD K15A = target: T4, RacA DBD K15A; assay: fluorescence polarization
RacA DBD R30A = target: T5, RacA DBD R30A; assay: fluorescence polarization
RacA C-domain = target: T6, RacA C-domain; assay: fluorescence polarization
[2] = target: B4; assay: ITC
[3] = target: B3; assay: ITC
[4] = target: B3; assay: ITC; remark: listed apart in the source

Binder: B1
- binding result [1]: binds

Binder: B2
- Kd (RacA DBD): 9.2 ± 4 µM
- Kd (RacA FL): 0.0584 ± 0.0003 µM
- Kd (RacA DBD K15A): ~50 µM
- Kd (RacA DBD R30A): ~50 µM
- binding result (RacA C-domain): no binding

Binder: B3
- stoichiometry N [2]: 1

Binder: B4
- Kd [3]: 1.5 µM
- stoichiometry N [3]: 1
- Kd [4]: 1.9 µM
